17 molecules from patent publication US20070232789A1 (UNIVERSITY OF MARYLAND BALTIMORE, published 2007) can be followed below.

Sequences and labels used below:
T1: A1/A3-C1-C2 heterodimer of factor VIII, plasma-derived (human, UniProt P00451 20-391; P00451 1709-2351)
T1 sequence 1: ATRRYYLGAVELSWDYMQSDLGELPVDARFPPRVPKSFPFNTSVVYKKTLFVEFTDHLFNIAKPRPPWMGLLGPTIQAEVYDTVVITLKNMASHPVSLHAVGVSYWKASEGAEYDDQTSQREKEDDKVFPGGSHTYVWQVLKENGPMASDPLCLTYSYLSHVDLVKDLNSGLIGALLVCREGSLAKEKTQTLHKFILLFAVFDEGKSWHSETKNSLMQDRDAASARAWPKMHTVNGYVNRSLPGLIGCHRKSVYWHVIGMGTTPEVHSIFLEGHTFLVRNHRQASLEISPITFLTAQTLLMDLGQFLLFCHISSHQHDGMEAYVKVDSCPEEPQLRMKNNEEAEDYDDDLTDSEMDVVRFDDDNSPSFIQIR
T1 sequence 2: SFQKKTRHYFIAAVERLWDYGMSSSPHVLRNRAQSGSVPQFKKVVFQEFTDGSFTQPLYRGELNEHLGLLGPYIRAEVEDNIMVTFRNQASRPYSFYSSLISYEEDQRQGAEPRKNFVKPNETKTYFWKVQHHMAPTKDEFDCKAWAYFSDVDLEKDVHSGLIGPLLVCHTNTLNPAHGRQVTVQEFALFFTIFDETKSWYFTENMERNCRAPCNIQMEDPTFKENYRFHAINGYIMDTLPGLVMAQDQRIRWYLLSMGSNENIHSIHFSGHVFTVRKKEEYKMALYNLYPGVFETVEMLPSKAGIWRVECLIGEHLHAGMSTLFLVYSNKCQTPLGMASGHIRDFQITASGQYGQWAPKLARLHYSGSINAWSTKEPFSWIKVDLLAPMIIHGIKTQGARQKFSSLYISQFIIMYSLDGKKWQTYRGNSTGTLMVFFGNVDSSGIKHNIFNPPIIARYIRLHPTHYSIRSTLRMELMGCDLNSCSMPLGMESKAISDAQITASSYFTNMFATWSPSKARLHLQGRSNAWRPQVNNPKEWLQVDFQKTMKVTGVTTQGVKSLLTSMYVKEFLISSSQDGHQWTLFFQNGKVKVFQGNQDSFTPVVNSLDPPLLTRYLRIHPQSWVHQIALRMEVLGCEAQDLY

B1: recombinant A2 mutant #8 (Tyr-487 to Ala) (other)
chain: SGAKKHPKTWVHYIAAEEEDWDYAPLVLAPDDRSYKSQYLNNGPQRIGRKYKKVRFMAYTDETFKTREAIQHESGILGPLLYGEVGDTLLIIFKNQASRPYNIYPHGITDVRPLASRRLPKGVKHLKDFPILPGEIFKYKWTVTVEDGPTKSDPRCLTRYYSSFVNMERDLASGLIGPLLICYKESVDQRGNQIMSDKRNVILFSVFDENRSWYLTENIQRFLPNPAGVQLEDPEFQASNIMHSINGYVFDSLQLSVCLHEVAYWYILSIGAQTDFLSVFFSGYTFKHKMVYEDTLTLFPFSGETVFMSMENPGLWILGCHNSDFRNRGMTALLKVSSCDKNTGDYYEDSYEDISAYLLSKNNAIEPR
notes: hx-A2 form from Sf9 cells
B2: recombinant A2 mutant #10 (Arg-489 to Ala) (other)
chain: B1 chain with A115Y, R117A
notes: hx-A2 form from Sf9 cells
B3: 39 kDa receptor-associated protein (RAP), human, expressed in bacteria (other)
chain: YSREKNQPKPSPKRESGEEFRMEKLNQLWEKAQRLHLPPVRLAELHADLKIQERDELAWKKLKLDGLDEDGEKEARLIRNLNVILAKYGLDGKKDARQVTSNSLSGTQEDGLDDPRLEKLWHKAKTSGKFSGEELDKLWREFLHHKEKVHEYNVLLETLSRTEEIHENVISPSDLSDIKGSVLHSRHTELKEKLRSINQGLDRLRRVSHQGYSTEAEFEEPRVIDLWDLAQSANLTDKELEAFREELKHFEAKIEKHNHYQKQLEIAHEKLRHAESVGDGERVSRSREKHALLEGRTKELGYTVKKHLQDLSGRISRARHNEL
notes: also called α2 macroglobulin receptor-associated protein
B4: recombinant wild-type A2 domain of human factor VIII (hx-A2) (other)
chain: B1 chain with A115Y
notes: Secreted from Sf9 cells as hx-A2 and purified on mAb 8860; Removal of the tag is not reported; also called wt-A2; recombinant A2; not shown: N-terminal hx leader (6xHis tag, vector-derived linker, factor Xa site)
B5: recombinant A2 mutant #19 (Lys-523 to Ala) (other)
chain: B1 chain with A115Y, K151A
notes: hx-A2 form from Sf9 cells; not shown: N-terminal hx leader (6xHis tag, vector-derived linker, factor Xa site)
B6: recombinant A2 mutant #15 (His-497 to Ala) (other)
chain: B1 chain with A115Y, H125A
notes: hx-A2 form from Sf9 cells
B7: recombinant A2 mutant #13 (Lys-493 to Ala) (other)
chain: B1 chain with A115Y, K121A
notes: hx-A2 form from Sf9 cells
B8: recombinant A2 mutant #12 (Leu-491 to Ala) (other)
chain: B1 chain with A115Y, L119A
notes: hx-A2 form from Sf9 cells
B9: recombinant A2 mutant #14 (Lys-496 to Ala) (other)
chain: B1 chain with A115Y, K124A
notes: hx-A2 form from Sf9 cells
B10: recombinant A2 mutant #1 (Lys-376 to Ala) (other)
chain: B1 chain with K4A, A115Y
notes: as for B5
B11: recombinant A2 mutant #17 (Lys-510 to Ala) (other)
chain: B1 chain with A115Y, K138A
notes: as for B5
B12: recombinant A2 mutant #16 (His-499 to Ala as printed in Tables 1 and 2; Lys^499 in the text) (other)
chain: B1 chain with A115Y, K127A
notes: hx-A2 form from Sf9 cells; also called Lys^499 Ala mutant; not shown: N-terminal hx leader (6xHis tag, vector-derived linker, factor Xa site)
B13: recombinant A2 mutant #20 (Lys-556 to Ala) (other)
chain: B1 chain with A115Y, K184A
notes: as for B5
B14: recombinant A2 mutant #11 (Arg-490 to Ala) (other)
chain: B1 chain with A115Y, R118A
notes: hx-A2 form from Sf9 cells
B15: recombinant A2 mutant #18 (Lys-512 to Ala) (other)
chain: B1 chain with A115Y, K140A
notes: as for B5
B16: recombinant A2 mutant #9 (Ser-488 to Ala) (other)
chain: B1 chain with A115Y, S116A
notes: hx-A2 form from Sf9 cells

Positions count from the first letter of the chain named.

One assay deals with T2, low-density lipoprotein receptor-related protein (LRP), purified (human, UniProt Q07954 20-4544).
T2 construct: mature; also called low density lipoprotein receptor-related protein/α2-macroglobulin receptor; LRP receptor
T2 sequence (Q07954 20-4544, form in doubt): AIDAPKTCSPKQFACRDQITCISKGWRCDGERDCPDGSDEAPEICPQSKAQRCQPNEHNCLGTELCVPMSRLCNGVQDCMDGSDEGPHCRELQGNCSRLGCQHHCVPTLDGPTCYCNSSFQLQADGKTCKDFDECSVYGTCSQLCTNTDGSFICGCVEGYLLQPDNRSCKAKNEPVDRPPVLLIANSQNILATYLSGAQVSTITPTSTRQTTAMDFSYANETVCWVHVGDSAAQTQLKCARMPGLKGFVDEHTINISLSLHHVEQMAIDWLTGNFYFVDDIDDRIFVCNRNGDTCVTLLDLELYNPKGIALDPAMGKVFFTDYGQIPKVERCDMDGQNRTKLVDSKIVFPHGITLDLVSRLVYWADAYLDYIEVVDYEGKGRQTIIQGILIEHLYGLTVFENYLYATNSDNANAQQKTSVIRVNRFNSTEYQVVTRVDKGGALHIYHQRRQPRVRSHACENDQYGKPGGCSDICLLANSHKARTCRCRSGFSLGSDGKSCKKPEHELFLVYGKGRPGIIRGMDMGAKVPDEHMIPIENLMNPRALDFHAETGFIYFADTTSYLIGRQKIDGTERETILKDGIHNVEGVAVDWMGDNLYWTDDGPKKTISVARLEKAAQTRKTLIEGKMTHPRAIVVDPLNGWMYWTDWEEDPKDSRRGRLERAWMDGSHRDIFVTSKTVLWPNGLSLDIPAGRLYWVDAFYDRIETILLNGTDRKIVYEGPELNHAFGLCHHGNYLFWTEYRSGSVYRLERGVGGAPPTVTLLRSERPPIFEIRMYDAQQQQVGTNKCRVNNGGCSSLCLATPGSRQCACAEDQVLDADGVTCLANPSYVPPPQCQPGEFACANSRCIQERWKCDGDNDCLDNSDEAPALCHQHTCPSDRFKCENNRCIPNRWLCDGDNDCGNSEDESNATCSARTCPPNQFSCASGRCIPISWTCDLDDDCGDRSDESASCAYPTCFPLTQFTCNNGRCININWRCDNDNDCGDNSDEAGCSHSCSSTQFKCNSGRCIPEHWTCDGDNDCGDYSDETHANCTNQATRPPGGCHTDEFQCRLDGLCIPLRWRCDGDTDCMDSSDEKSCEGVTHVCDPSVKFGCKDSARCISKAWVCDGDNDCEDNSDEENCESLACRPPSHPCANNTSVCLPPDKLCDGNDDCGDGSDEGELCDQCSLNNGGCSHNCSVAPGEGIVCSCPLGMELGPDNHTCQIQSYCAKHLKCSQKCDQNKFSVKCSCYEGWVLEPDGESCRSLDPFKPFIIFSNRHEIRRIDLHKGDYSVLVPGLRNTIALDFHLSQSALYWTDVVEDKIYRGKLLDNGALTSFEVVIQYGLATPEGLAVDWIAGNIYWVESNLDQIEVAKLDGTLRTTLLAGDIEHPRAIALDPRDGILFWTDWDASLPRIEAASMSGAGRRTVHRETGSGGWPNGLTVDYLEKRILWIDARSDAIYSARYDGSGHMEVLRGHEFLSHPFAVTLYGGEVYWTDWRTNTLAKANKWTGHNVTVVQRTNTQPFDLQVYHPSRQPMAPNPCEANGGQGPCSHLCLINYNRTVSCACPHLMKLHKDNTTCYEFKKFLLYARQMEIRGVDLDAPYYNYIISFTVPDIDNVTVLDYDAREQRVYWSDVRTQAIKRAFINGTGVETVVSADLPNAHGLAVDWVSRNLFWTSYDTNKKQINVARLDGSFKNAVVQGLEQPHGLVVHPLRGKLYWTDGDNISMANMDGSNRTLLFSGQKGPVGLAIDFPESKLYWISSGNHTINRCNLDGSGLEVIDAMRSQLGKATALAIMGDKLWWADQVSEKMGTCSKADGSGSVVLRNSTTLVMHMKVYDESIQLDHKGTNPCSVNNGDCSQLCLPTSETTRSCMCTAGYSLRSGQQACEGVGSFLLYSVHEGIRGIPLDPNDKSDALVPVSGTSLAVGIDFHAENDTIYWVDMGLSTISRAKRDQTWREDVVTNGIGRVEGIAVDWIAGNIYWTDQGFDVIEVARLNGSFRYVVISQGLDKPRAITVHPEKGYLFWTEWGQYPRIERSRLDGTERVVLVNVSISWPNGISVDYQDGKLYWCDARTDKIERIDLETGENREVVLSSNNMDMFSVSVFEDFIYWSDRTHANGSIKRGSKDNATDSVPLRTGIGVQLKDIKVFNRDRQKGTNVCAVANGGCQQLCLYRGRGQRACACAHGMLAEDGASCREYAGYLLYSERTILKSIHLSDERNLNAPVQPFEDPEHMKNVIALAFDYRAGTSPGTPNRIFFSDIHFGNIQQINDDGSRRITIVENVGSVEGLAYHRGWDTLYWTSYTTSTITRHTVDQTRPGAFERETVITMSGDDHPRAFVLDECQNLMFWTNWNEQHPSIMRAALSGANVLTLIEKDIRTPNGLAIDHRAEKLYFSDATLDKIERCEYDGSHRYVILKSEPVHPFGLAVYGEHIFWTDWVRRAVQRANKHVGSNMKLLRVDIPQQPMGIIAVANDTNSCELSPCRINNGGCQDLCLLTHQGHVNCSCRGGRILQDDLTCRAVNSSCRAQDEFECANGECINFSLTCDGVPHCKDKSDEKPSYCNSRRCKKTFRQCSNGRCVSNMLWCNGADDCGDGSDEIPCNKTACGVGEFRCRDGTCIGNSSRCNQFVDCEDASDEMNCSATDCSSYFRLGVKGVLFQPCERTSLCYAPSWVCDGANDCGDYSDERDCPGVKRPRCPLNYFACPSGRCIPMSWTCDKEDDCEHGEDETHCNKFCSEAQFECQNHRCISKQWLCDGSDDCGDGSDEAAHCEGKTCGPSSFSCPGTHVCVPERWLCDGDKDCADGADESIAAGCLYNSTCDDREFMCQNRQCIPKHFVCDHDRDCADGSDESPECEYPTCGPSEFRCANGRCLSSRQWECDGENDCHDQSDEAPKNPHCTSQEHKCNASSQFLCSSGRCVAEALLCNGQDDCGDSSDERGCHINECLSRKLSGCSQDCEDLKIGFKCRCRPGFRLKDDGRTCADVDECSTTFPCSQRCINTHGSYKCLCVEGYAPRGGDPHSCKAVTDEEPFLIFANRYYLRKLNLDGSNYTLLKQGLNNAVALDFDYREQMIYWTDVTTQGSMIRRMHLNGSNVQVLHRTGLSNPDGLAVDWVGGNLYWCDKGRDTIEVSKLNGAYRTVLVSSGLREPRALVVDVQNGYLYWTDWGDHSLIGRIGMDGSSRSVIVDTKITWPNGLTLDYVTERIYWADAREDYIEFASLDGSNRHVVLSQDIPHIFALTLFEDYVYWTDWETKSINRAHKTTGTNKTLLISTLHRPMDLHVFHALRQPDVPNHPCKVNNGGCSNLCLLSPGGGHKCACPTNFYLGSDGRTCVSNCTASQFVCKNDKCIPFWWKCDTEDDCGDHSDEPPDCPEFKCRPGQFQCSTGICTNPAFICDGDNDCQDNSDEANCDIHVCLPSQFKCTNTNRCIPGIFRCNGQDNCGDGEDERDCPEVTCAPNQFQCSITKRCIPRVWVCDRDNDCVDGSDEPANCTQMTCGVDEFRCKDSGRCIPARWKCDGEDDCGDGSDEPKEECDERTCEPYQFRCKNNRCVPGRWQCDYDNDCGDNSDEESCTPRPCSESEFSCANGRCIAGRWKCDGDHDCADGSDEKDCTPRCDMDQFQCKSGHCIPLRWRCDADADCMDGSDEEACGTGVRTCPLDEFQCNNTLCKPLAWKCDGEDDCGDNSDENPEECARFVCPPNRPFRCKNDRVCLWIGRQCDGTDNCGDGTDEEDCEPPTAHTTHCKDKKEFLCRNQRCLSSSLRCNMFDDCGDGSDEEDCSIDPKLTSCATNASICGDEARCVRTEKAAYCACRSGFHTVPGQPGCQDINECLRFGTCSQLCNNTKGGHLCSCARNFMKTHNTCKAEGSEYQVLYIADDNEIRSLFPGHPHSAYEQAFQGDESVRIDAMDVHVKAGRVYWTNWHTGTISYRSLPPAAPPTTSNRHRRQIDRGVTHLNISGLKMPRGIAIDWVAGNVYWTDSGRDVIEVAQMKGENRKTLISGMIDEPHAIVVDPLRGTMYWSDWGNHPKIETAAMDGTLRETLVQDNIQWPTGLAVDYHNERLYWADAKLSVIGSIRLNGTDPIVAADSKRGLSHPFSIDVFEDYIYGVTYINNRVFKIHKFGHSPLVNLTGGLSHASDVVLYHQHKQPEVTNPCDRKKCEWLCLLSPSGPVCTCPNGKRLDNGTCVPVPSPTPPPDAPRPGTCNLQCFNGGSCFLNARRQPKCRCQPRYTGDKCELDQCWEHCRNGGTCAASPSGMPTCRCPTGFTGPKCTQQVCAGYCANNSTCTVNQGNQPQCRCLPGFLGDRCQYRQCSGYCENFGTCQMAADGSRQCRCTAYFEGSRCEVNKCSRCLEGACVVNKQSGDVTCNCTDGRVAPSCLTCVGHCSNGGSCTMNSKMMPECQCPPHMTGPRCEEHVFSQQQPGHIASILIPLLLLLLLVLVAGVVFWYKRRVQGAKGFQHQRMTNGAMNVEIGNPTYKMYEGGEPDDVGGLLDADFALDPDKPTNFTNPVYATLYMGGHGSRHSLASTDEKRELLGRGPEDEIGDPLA
The assay can be described thus: competition: peptide 484-509 varied, competitor 125I-fVIII, LRP-coated microtiter wells. As for the experimental part:
FIGS. 17A-17B. […] The mean and standard deviation of the triplicate measurements are presented.
(§1) Solid-phase binding assays. […] Microtiter wells were coated with purified LRP or BSA (3 μg/ml) in 50 mM Tris, 0.15 M NaCl, pH 8.0, for 16 h and then blocked with 3% BSA in TBS. […] The radioactivity bound to the wells was counted using a γ-counter (Pharmacia). Affinity constants were derived from homologous and heterologous displacement data using the computer program LIGAND (Munson, P T and Rodbard, D. Anal. Biochem. 107:220-239 (1980)).
Consider RPLYSRRLPKGVKHLKDFPILPGEIF [synthetic A2 domain peptide 484-509], for which the “IC50 (read off the curve)” value was ~1000 nM.

In another assay the target is T2, low-density lipoprotein …. The assay can be described thus: SPR, BIAcore 3000. From the text: (§2) Surface plasmon resonance-based binding assay. […] This system allows real-time biomolecular interaction analysis (BIA) using surface plasmon resonance (SPR) technology. One molecule (the ligand) is usually immobilized on the surface of the sensor chip; the second molecule (the analyte) in solution is passed over the chip under conditions of continuous flow, and the amount of the bound analyte is detected by the system. SPR is a non-invasive optical measuring technique which measures the mass concentration of biomolecules in close proximity to the sensor chip where association and dissociation of biomolecular complexes occurs. […] The association (kₒₙ) and dissociation (koff) rate constants were determined using BIAevaluation Version 3.1 software. The data were corrected for bulk refraction index changes and fitted to a one-site binding model by a non-linear regression analysis Equilibrium dissociation constants (KD) were calculated from the ratio koff/kₒₙ.
(SPR reads the build-up and loss of mass on a sensor chip optically.)
Regarding B1, the “fold decrease of affinity against wt-A2” value was determined as 5 fold.

On to B2, for which the “fold decrease of affinity against wt-A2” value is 7 fold.

Another assay concerns the target T2, low-density lipoprotein …. Nature of the assay: heterologous ligand displacement: RAP varied, competitor 125I-fVIII (1 nM), LRP-coated microtiter wells. As for the experimental part: (§3) FIGS. 15A-15B. […] Each point represents the mean value of triplicates and the error bars display the standard deviation. The curves show a best fit of the data to a model describing heterologous ligand displacement from a single class of binding sites using the program LIGAND.
as §1
Consider B3, for which the “IC50 (read off the curve)” value was ~2 nM.

Another assay has as its target T1, A1/A3-C1-C2 heterodimer of factor VIII, …. The assay can be described thus: cell-based or functional assay.
As for B4, the “Activity of reconstituted FVIIIa (% of wt activity)” value (from here on “Activity … (% of wt activity)”) is 100 % of wt activity.

For the molecule B1, the “Activity … (% of wt activity)” value is 87.9 % of wt activity.

As to B5, the “Activity … (% of wt activity)” value was 390 % of wt activity.

In the case of B6, the “Activity … (% of wt activity)” value was 242 % of wt activity.

On to B7, for which the “Activity … (% of wt activity)” value is 267 % of wt activity.

For the molecule B8, the “Activity … (% of wt activity)” value is 518 % of wt activity.

Turning to B9, the “Activity … (% of wt activity)” value is 263 % of wt activity.

Take B2: the “Activity … (% of wt activity)” value is 130 % of wt activity.

As for B10, the “Activity … (% of wt activity)” value was 73.9 % of wt activity.

B11: the “Activity … (% of wt activity)” value is 91.5 % of wt activity.

With B12, the “Activity … (% of wt activity)” value was 128 % of wt activity.

B13: the “Activity … (% of wt activity)” value is 196 % of wt activity.

On to B14, for which the “Activity … (% of wt activity)” value is 151 % of wt activity.

On to B15, for which the “Activity … (% of wt activity)” value was 219 % of wt activity.

For the molecule B16, the “Activity … (% of wt activity)” value was 232 % of wt activity.

A further assay deals with T2, low-density lipoprotein …. The assay can be described thus: heterologous displacement of ^125I-fVIII (1 nM) from LRP-coated wells. As for the experimental part: as §3, §1
For orientation: Ki means a measure of affinity in units of concentration, obtained from inhibition or displacement. Lower therefore signals a stronger hold on the target. In turn, B3 had a Ki of 2.5 nM.

Another assay addresses T2, low-density lipoprotein …. The assay can be described thus: SPR, BIAcore 3000, one-site model, KD = koff/kon.
Text: as §2
As a reminder, the Kd is the free concentration of one partner at which half of the binding sites on the other are occupied at equilibrium, for simple one-to-one binding. Lower therefore signals a tighter complex. B4 showed a Kd of 21 nM.

Take B1: binding was characterised by a dissociation constant (Kd) of 97 nM.

B5 came in with a Kd of 41 nM.

B6 showed a Kd of 51 nM.

B7 returned a Kd of 18 nM.

B8: the Kd was 21 nM.

Molecule B9 displayed a Kd of 9.5 nM.

On to B2, for which the Kd was determined as 150 nM.

For B10, binding was put at a Kd of 25.5 nM.

Molecule B11 showed a Kd of 29 nM.

Take B12: the Kd was 33 nM.

B13 yielded a Kd of 33 nM.

With B14, the Kd was 59 nM.

As for B15, binding was put at a Kd of 21 nM.

B16 yielded a Kd of 67 nM.
